target: human neonatal Fc-receptor (FcRn) (human) (UniProt P55899); experiment: FcRn affinity column chromatography

FcRn-affinity column retention time [min] | retention time [min] | Substance
41.3 | – | IgG1 Fc-region with L234A/L235A/P329G and symmetric Y436A
– | 46.4 | anti-HER2 antibody, symmetric mutation E430H
– | 45.2 | anti-HER2 antibody, symmetric mutation K288E
– | 46.2 | anti-HER2 antibody, symmetric mutation K290H
– | 46.3 | anti-HER2 antibody, symmetric mutation K317H
– | 45.5 | anti-HER2 antibody, symmetric mutation L309H
– | 52 | anti-HER2 antibody, symmetric mutation N434H
– | 46.3 | anti-HER2 antibody, symmetric mutation Q311H
– | 41.4 | anti-HER2 antibody, symmetric mutation R255D
– | 46 | anti-HER2 antibody, symmetric mutation T256H

Reference: patent US20220324955A1
